From patent US20080306007A1 (NEWCASTLE INNOVATION, published 2008)

B1: DynI783-796 peptide (peptide)
peptide: RRAPAVPPARPGSR
notes: Synthetic peptide of the site 2 and site 3 region of dynamin I
B2: GST-DynI-2D (other, rat, UniProt P21575 746-864, looked up)
chain: NTTTVSTPMPPPVDDSWLQVQSVPAGRRSPTSSPTPQEEAPAVPPARPGSRGPAPGPPPAGSALGGAPPVPSRPGASPDPFGPPPQVPSRPNRAPPGVPSRSGQASPSRPESPRPPFDL
notes: range 746-864; not shown: glutathione S-transferase tag from vector pGEX4T-1
B3: GST-DynI-2E (other, rat, UniProt P21575 746-864, looked up)
chain: NTTTVSTPMPPPVDDSWLQVQSVPAGRRSPTSSPTPQAAAPAVPPARPGSRGPAPGPPPAGSALGGAPPVPSRPGASPDPFGPPPQVPSRPNRAPPGVPSRSGQASPSRPESPRPPFDL
notes: as for B2

Legend:
[1] = target: T1, endophilin I (native, from rat brain lysate or synaptosomes) (rat, UniProt O35179 1-352); assay: peptide competition in GST-DynI-PRD pull-down from rat brain lysate, Western blot
T1 construct: mature
T1 sequence (O35179 whole entry): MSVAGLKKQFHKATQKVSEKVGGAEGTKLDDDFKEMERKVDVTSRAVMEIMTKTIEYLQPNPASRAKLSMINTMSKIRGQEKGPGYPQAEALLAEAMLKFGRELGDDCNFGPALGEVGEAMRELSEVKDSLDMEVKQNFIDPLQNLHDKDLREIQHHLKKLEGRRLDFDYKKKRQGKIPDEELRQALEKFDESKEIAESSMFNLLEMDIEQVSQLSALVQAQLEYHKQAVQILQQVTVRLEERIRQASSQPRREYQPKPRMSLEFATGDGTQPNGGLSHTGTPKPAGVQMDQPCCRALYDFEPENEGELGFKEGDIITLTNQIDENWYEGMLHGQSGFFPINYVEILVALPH
Protocol: Total rat brain extract was prepared by homogenising brain tissue in ice-cold lysis buffer (1% Triton X-100, 150 mM NaCl, 25 mM Tris pH 7.4, 1 mM EDTA, 1 mM EGTA, 20 μg/ml leupeptin, 1 mM phenylmethylsulfonyl fluoride and EDTA-free Complete protease inhibitor (Roche)). The homogenate was centrifuged twice at 75,600 g for 30 min at 4° C. The supernatant was pre-cleared by addition of GSH-sepharose beads for 1 h, pelleted at 50 g for 5 min at 4° C., and the supernatant collected. GST-DynI-PRD recombinant proteins were then incubated with an equal amount of tissue lysate at 4° C. for 1 h. Beads were washed extensively with ice-cold 20 mM Tris pH 7.4 containing 1 mM EGTA, eluted in 2×SDS-PAGE sample buffer, resolved on 7.5-15% gradient SDS gels and stained with colloidal Coomassie Blue. Identification of proteins was by matrix-assisted laser desorption ionization time-of-flight mass spectrometry (MALDI-TOF MS). Some peptides were sequenced by tandem MS/MS.
A common characteristic of most binding sites for SH3 domains is the presence of the core amino acid motif PxxP, which is often followed or preceded by a basic Arg residue. There are 13 such motifs in the dynamin I PRD (numbered from site 1 at the N-terminus of the PRD at Pro-753 in dynamin I). […]

[2] = target: T2, syndapin I (native, from rat brain lysate or synaptosomes) (rat, UniProt Q9Z0W5 1-441); assay: GST pull-down from rat brain lysate
T2 construct: also called PACSIN I; 52 kDa band
T2 sequence (Q9Z0W5 whole entry): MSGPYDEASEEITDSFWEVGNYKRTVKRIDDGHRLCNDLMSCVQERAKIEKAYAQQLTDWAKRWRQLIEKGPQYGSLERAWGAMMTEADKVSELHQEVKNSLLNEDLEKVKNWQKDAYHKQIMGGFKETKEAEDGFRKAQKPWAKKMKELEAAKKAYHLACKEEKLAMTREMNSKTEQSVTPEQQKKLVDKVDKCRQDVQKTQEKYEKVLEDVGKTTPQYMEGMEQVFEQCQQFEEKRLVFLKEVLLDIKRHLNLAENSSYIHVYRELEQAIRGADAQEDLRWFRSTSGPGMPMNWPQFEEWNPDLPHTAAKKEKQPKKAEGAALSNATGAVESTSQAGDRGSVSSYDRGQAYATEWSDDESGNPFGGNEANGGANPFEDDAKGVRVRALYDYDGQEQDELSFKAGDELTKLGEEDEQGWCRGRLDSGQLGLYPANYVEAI

Row | Binder | fold weaker inhibitory effect than on syndapin I binding [1] | binding result [2]
1 | B1 | 5 fold | 
2 | B2 |  | no binding
3 | B3 |  | no binding
